*1 amine or outer side, *2 acyl side, *3 side chain or, on linkers, in order; H or OH if unused. [ ]: non-standard residue; d: D form. pAMF = para-azidomethylphenylalanine, [N-]=[N+]=NCc1ccc(C[C@H](N[*:1])C(=O)[*:2])cc1
T1: mouse IL-2Rαβγc (on CTLL2-STAT5 reporter cells) (mouse, UniProt P01590 22-268; P16297 27-539; P34902 23-369)
T1 sequence (looked up) 1: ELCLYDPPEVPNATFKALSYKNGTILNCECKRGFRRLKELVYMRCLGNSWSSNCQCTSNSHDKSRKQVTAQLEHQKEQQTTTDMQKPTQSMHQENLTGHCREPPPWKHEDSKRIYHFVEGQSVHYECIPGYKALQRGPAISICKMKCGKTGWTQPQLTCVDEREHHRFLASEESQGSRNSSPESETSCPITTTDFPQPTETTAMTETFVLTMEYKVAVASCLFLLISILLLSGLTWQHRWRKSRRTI
T1 sequence (looked up) 2: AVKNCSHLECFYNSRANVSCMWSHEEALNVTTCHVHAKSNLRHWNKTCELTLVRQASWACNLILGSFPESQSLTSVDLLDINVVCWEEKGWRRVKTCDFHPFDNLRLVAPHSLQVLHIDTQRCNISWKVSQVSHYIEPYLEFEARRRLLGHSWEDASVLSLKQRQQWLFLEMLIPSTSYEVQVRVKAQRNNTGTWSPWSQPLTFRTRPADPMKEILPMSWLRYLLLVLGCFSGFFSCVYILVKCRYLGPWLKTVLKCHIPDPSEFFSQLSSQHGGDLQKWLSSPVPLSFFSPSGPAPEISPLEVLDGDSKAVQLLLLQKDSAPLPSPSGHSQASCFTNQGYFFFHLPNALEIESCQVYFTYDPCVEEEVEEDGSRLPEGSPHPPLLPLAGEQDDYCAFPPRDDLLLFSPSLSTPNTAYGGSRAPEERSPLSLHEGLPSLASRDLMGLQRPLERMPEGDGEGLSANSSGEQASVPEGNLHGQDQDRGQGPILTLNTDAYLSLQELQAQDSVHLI
T1 sequence (looked up) 3: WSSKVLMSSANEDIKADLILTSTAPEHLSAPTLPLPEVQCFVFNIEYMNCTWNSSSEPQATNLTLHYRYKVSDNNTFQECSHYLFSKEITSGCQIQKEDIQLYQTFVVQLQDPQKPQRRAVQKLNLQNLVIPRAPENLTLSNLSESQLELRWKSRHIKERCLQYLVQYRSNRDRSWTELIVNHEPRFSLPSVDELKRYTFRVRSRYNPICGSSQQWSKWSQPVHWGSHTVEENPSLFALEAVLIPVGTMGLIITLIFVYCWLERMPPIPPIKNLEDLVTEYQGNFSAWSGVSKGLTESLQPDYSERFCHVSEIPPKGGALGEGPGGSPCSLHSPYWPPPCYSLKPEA

T2: human IL-2Rβγc (on DERL-7 cells, U2OS IL2RB/IL2RG cells, CD25 knockout Kit225-STAT5 cells, primary CD8+ CTLs) (human, UniProt P14784 27-551; P31785 23-369)
T2 sequence (looked up) 1: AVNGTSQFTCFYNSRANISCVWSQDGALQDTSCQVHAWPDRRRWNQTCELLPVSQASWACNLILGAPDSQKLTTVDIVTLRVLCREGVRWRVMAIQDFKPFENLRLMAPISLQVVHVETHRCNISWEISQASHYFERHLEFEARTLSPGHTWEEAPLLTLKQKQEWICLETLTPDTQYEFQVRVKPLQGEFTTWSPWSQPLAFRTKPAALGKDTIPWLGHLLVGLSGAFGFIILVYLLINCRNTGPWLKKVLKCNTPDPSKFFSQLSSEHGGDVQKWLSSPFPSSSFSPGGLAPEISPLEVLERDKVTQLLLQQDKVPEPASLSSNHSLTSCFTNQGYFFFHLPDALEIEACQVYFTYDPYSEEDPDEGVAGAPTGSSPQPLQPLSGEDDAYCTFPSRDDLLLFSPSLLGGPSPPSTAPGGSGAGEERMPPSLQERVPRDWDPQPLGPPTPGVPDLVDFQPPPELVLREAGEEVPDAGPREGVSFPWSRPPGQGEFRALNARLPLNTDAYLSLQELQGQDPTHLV
T2 sequence (looked up) 2: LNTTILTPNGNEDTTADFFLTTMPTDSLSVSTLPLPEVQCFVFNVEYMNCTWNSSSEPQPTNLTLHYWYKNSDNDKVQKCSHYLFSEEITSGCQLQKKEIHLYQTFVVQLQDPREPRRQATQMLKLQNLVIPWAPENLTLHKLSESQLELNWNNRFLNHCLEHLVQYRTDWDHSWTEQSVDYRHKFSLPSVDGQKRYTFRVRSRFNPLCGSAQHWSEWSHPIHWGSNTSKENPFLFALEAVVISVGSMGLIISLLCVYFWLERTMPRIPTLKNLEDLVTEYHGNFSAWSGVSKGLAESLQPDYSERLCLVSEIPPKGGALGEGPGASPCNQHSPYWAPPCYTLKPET

T3: Biotin-IL-2Rα-His (UniProt P01589 22-213, limits assumed, biotin-labeled (site not stated))
T3 construct: also called biotin-labeled IL-2Rα; not shown: His tag
T3 sequence (looked up): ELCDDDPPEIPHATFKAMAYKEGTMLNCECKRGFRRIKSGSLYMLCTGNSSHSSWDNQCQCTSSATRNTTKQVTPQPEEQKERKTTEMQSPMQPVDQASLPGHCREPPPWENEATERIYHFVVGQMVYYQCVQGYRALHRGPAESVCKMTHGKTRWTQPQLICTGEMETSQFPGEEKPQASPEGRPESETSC

T4: Biotin-IL-2Rβ-His (UniProt P14784 27-239, limits assumed, biotin-labeled (site not stated))
T4 construct: also called biotin-labeled IL-2Rβ; not shown: His tag
T4 sequence (looked up): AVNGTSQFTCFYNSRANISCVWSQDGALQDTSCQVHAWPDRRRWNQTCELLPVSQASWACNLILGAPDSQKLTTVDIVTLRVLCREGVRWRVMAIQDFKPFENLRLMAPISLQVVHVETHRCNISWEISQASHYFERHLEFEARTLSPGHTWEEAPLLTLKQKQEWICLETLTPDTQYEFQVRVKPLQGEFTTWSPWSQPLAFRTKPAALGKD

T5: human IL-2Rαβγc (on Kit225-STAT5 reporter cells, NK-92 cells, primary Treg cells) (human, UniProt P01589 22-272; P14784 27-551; P31785 23-369)
T5 sequence (looked up) 1: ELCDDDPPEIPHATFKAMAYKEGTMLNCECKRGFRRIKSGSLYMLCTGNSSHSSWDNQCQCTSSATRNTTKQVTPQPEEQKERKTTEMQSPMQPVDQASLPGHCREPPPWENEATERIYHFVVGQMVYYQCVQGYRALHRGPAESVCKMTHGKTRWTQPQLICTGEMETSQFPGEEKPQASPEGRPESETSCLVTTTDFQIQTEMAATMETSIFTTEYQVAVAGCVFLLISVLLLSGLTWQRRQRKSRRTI
T5 sequence (looked up) 2: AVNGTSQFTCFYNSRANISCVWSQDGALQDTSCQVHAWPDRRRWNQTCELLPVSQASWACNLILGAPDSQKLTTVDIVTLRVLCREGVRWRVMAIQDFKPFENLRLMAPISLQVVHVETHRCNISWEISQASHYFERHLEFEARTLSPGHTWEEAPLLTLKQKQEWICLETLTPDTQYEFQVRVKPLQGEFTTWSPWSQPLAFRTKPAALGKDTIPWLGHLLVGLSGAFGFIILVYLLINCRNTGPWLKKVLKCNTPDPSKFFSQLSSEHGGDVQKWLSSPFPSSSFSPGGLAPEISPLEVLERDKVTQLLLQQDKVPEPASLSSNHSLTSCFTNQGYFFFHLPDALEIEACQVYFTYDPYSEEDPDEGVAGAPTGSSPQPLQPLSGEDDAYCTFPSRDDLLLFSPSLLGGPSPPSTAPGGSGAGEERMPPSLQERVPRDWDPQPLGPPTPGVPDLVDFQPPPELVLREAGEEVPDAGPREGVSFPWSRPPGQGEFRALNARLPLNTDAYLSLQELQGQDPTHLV
T5 sequence (looked up) 3: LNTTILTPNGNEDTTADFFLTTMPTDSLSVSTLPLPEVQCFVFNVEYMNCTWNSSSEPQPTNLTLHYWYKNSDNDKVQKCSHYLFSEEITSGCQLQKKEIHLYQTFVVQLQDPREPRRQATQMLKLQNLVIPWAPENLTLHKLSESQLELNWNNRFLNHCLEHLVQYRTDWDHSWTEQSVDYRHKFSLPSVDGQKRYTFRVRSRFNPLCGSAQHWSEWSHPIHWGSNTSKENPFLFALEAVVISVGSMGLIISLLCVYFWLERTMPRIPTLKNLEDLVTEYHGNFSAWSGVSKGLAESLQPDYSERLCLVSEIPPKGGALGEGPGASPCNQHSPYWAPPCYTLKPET

B1: Ald-6HIS_E60T/E61S (ligand)
chain: PTSSSTKKTQLQLEHLLLDLQMILNGINNYKNPKLTRMLTFKFYMPKKATELKHLQCLETSLKPLEEVLNLAQSKNFHLRPRDLISNINVIVLELKGSETTFMCEYADETATIVEFLNRWITFSQSIISTLTGGSHHHHHH
B2: Ald-6HIS_E61S/Y106A (ligand)
chain: PTSSSTKKTQLQLEHLLLDLQMILNGINNYKNPKLTRMLTFKFYMPKKATELKHLQCLEESLKPLEEVLNLAQSKNFHLRPRDLISNINVIVLELKGSETTFMCEAADETATIVEFLNRWITFSQSIISTLTGGSHHHHHH
B3: Ald-6HIS_E60T/P64A (ligand)
chain: PTSSSTKKTQLQLEHLLLDLQMILNGINNYKNPKLTRMLTFKFYMPKKATELKHLQCLETELKALEEVLNLAQSKNFHLRPRDLISNINVIVLELKGSETTFMCEYADETATIVEFLNRWITFSQSIISTLTGGSHHHHHH
B4: Ald-6HIS_E60T/E61S/P64A (ligand)
chain: PTSSSTKKTQLQLEHLLLDLQMILNGINNYKNPKLTRMLTFKFYMPKKATELKHLQCLETSLKALEEVLNLAQSKNFHLRPRDLISNINVIVLELKGSETTFMCEYADETATIVEFLNRWITFSQSIISTLTGGSHHHHHH
B5: Ald-6HIS_E61S/P64A (ligand)
chain: PTSSSTKKTQLQLEHLLLDLQMILNGINNYKNPKLTRMLTFKFYMPKKATELKHLQCLEESLKALEEVLNLAQSKNFHLRPRDLISNINVIVLELKGSETTFMCEYADETATIVEFLNRWITFSQSIISTLTGGSHHHHHH
B6: Ald_S4pAMF/R37A/F41K (MUT1) (ligand)
chain: PTS[pAMF]STKKTQLQLEHLLLDLQMILNGINNYKNPKLTAMLTKKFYMPKKATELKHLQCLEEELKPLEEVLNLAQSKNFHLRPRDLISNINVIVLELKGSETTFMCEYADETATIVEFLNRWITFSQSIISTLT
modifications: ends and bridges not checked

How the values were obtained:
[1] = molecular target: T1, mouse IL-2Rαβγc (on CTLL2-STAT5 …); test: cell-based or functional assay
[2] = molecular target: T2, human IL-2Rβγc (on DERL-7 cells, U2OS …); test: cell-based or functional assay
[3] = molecular target: T3, Biotin-IL-2Rα-His; test: SPR (Biacore T200)
[4] = molecular target: T4, Biotin-IL-2Rβ-His; test: SPR (Biacore T200)
[5] = molecular target: T5, human IL-2Rαβγc (on Kit225-STAT5 …); test: cell-based or functional assay

Binder | CTLL2-STAT5 EC50 [1] [pM] | U2OS-IL2Rbg EC50 [2] [pM] | Kd [3] [nM] | fold reduction over wt [3] [fold] | Kd [4] [nM] | fold reduction over wt [4] [fold] | Kit225-STAT5 reporter, fold lower activity than aldesleukin [5] [fold]
B1 | 525 | 1950 | 800 | 80 | 2000 | 5 | –
B2 | > 7000 | 2870 | – | – | 2000 | 5 | –
B3 | 24 | 499 | 60 | 6 | 700 | 2 | –
B4 | 1090 | 1960 | 2000 | 200 | 1000 | 3 | –
B5 | 213 | 634 | 500 | 50 | 500 | 1 | –
B6 | – | – | – | – | – | – | 190

Source: patent publication US20210340207A1 (Merck Sharp & Dohme, published 2021)
